For 1 substance, binding/uptake (µg/mg protein) results are on record in patent US5683903.

The test concerns the target macrophage scavenger receptors on transfected 293 cells (human macrophage scavenger receptor type I or type II; the filing does not say which). In words: radioligand binding/uptake on transfected HEK 293 cells; about 5 µg/ml, 5 hours at 37° C.

[125I]-acetylated LDL yielded a binding/uptake (µg/mg protein) of 1.75.
